Assay results from article PMC4861429 (The Journal of Biological Chemistry, 2016).

B1: dimerization helix-containing PAS1 (residues 23–168) of TodS (domain or fragment, Pseudomonas putida F1, UniProt A5W4E3 23-168, looked up)
chain: KEKGSEELTCEEHARIIFDGLYEFVGLLDAHGNVLEVNQVALEGGGITLEEIRGKPFWKARWWQISKKTEATQKRLVETASSGEFVRCDVEILGKSGGREVIAVDFSLLPICNEEGSIVYLLAEGRNITDKKKAEAMLALKNQELE
notes: TodS sensor kinase of Pseudomonas putida F1, residues 23–168 (PAS1 domain with the predicted dimerization helix); In pHis-Parallel1 (NcoI/XhoI), which has a TEV site after the His6 tag; the tag was not removed for this construct; The forward primer adds Met-Gly before Lys23; also called PAS1(23–168); WT PAS1(23–168); source: E. coli C41(DE3), purified (Ni-NTA only); not shown: His6, …
B2: W85H-PAS1(23–168) (domain or fragment, Pseudomonas putida F1, UniProt A5W4E3 23-168, looked up)
chain: KEKGSEELTCEEHARIIFDGLYEFVGLLDAHGNVLEVNQVALEGGGITLEEIRGKPFWKARWHQISKKTEATQKRLVETASSGEFVRCDVEILGKSGGREVIAVDFSLLPICNEEGSIVYLLAEGRNITDKKKAEAMLALKNQELE
notes: TodS sensor kinase of Pseudomonas putida F1, residues 23–168 with W85H; source: E. coli C41(DE3), purified (Ni-NTA only); not shown: His6, N-terminal, kept
B3: F79Y-PAS1(23–168) (domain or fragment, Pseudomonas putida F1, UniProt A5W4E3 23-168, looked up)
chain: KEKGSEELTCEEHARIIFDGLYEFVGLLDAHGNVLEVNQVALEGGGITLEEIRGKPYWKARWWQISKKTEATQKRLVETASSGEFVRCDVEILGKSGGREVIAVDFSLLPICNEEGSIVYLLAEGRNITDKKKAEAMLALKNQELE
notes: TodS sensor kinase of Pseudomonas putida F1, residues 23–168 with F79Y; source: E. coli C41(DE3), purified (Ni-NTA only); not shown: His6, N-terminal, kept
B4: F46A-PAS1(23–168) (domain or fragment, Pseudomonas putida F1, UniProt A5W4E3 23-168, looked up)
chain: KEKGSEELTCEEHARIIFDGLYEAVGLLDAHGNVLEVNQVALEGGGITLEEIRGKPFWKARWWQISKKTEATQKRLVETASSGEFVRCDVEILGKSGGREVIAVDFSLLPICNEEGSIVYLLAEGRNITDKKKAEAMLALKNQELE
notes: TodS sensor kinase of Pseudomonas putida F1, residues 23–168 with F46A; source: E. coli C41(DE3), purified (Ni-NTA only); not shown: His6, N-terminal, kept
B5: E146A-PAS1(23–168) (domain or fragment, Pseudomonas putida F1, UniProt A5W4E3 23-168, looked up)
chain: KEKGSEELTCEEHARIIFDGLYEFVGLLDAHGNVLEVNQVALEGGGITLEEIRGKPFWKARWWQISKKTEATQKRLVETASSGEFVRCDVEILGKSGGREVIAVDFSLLPICNEEGSIVYLLAAGRNITDKKKAEAMLALKNQELE
notes: TodS sensor kinase of Pseudomonas putida F1, residues 23–168 with E146A; also called E146A mutant; source: E. coli C41(DE3), purified (Ni-NTA only); not shown: His6, N-terminal, kept
B6: V59A-PAS1(23–168) (domain or fragment, Pseudomonas putida F1, UniProt A5W4E3 23-168, looked up)
chain: KEKGSEELTCEEHARIIFDGLYEFVGLLDAHGNVLEANQVALEGGGITLEEIRGKPFWKARWWQISKKTEATQKRLVETASSGEFVRCDVEILGKSGGREVIAVDFSLLPICNEEGSIVYLLAEGRNITDKKKAEAMLALKNQELE
notes: TodS sensor kinase of Pseudomonas putida F1, residues 23–168 with V59A; source: E. coli C41(DE3), purified (Ni-NTA only); not shown: His6, N-terminal, kept
B7: TodS (residues 43–978), C-terminal His6-tagged (enzyme, Pseudomonas putida F1, UniProt A5W4E3 43-978, looked up)
chain: LYEFVGLLDAHGNVLEVNQVALEGGGITLEEIRGKPFWKARWWQISKKTEATQKRLVETASSGEFVRCDVEILGKSGGREVIAVDFSLLPICNEEGSIVYLLAEGRNITDKKKAEAMLALKNQELEQSVECIRKLDNAKSDFFAKVSHELRTPLSLILGPLEAVMAAEAGRESPYWKQFEVIQRNAMTLLKQVNTLLDLAKMDARQMGLSYRRANLSQLTRTISSNFEGIAQQKSITFDTKLPVQMVAEVDCEKYERIILNLLSNAFKFTPDGGLIRCCLSLSRPNYALVTVSDSGPGIPPALRKEIFERFHQLSQEGQQATRGTGLGLSIVKEFVELHRGTISVSDAPGGGALFQVKLPLNAPEGAYVASNTAPRRDNPQVVDTDEYLLLAPNAENEAEVLPFQSDQPRVLIVEDNPDMRGFIKDCLSSDYQVYVAPDGAKALELMSNMPPDLLITDLIMPVMSGDMLVHQVRKKNELSHIPIMVLSAKSDAELRVKLLSESVQDFLLKPFSAHELRARVSNLVSMKVAGDALRKELSDQGDDIAILTHRLIKSRHRLQQSNIALSASEARWKAVYENSAAGIVLTDPENRILNANPAFQRITGYGEKDLEGLSMEQLTPSDESPQIKQRLANLLQGGGAEYSVERSYLCKNGSTIWANASVSLMPQRVGESPVILQIIDDITEKKQAQENLNQLQQQLVYVSRSATMGEFAAYIAHEINQPLSAIMTNANAGTRWLGNEPSNIPEAKEALARIIRDSDRAAEIIRMVRSFLKRQETVLKPIDLKALVTDTSLILKAPSQNNSVNLDVVADDELPEIWGDGVQIQQLIINLAMNAIEAISQADCETRQLTLSFSGNDTGDALVISVKDTGPGISERQMAQLFNAFYTTKKEGLGMGLAICLTITEVHNGKIWVECPPAGGACFLVSIPARQGSGT
notes: In pET28b(+) (NcoI/XhoI); source: E. coli BL21 Star (DE3), purified (Ni-NTA, SEC Superdex G200); not shown: His6, C-terminal, kept
B8: TodS PAS2 (residues 611–729) (domain or fragment, Pseudomonas putida F1, UniProt A5W4E3 611-729, looked up)
chain: SEARWKAVYENSAAGIVLTDPENRILNANPAFQRITGYGEKDLEGLSMEQLTPSDESPQIKQRLANLLQGGGAEYSVERSYLCKNGSTIWANASVSLMPQRVGESPVILQIIDDITEKK
notes: TodS sensor kinase of Pseudomonas putida F1, residues 611–729 (PAS2 domain); also called PAS2(611–729); source: E. coli BL21 Star (DE3), purified (Ni-NTA, TEV protease, SEC Superdex G75, second Ni-NTA); not shown: His6, N-terminal, cleaved
B9: dimerization helix-containing TodS (residues 23–978) (enzyme, Pseudomonas putida F1, UniProt A5W4E3 23-978, looked up)
chain: KEKGSEELTCEEHARIIFDGLYEFVGLLDAHGNVLEVNQVALEGGGITLEEIRGKPFWKARWWQISKKTEATQKRLVETASSGEFVRCDVEILGKSGGREVIAVDFSLLPICNEEGSIVYLLAEGRNITDKKKAEAMLALKNQELEQSVECIRKLDNAKSDFFAKVSHELRTPLSLILGPLEAVMAAEAGRESPYWKQFEVIQRNAMTLLKQVNTLLDLAKMDARQMGLSYRRANLSQLTRTISSNFEGIAQQKSITFDTKLPVQMVAEVDCEKYERIILNLLSNAFKFTPDGGLIRCCLSLSRPNYALVTVSDSGPGIPPALRKEIFERFHQLSQEGQQATRGTGLGLSIVKEFVELHRGTISVSDAPGGGALFQVKLPLNAPEGAYVASNTAPRRDNPQVVDTDEYLLLAPNAENEAEVLPFQSDQPRVLIVEDNPDMRGFIKDCLSSDYQVYVAPDGAKALELMSNMPPDLLITDLIMPVMSGDMLVHQVRKKNELSHIPIMVLSAKSDAELRVKLLSESVQDFLLKPFSAHELRARVSNLVSMKVAGDALRKELSDQGDDIAILTHRLIKSRHRLQQSNIALSASEARWKAVYENSAAGIVLTDPENRILNANPAFQRITGYGEKDLEGLSMEQLTPSDESPQIKQRLANLLQGGGAEYSVERSYLCKNGSTIWANASVSLMPQRVGESPVILQIIDDITEKKQAQENLNQLQQQLVYVSRSATMGEFAAYIAHEINQPLSAIMTNANAGTRWLGNEPSNIPEAKEALARIIRDSDRAAEIIRMVRSFLKRQETVLKPIDLKALVTDTSLILKAPSQNNSVNLDVVADDELPEIWGDGVQIQQLIINLAMNAIEAISQADCETRQLTLSFSGNDTGDALVISVKDTGPGISERQMAQLFNAFYTTKKEGLGMGLAICLTITEVHNGKIWVECPPAGGACFLVSIPARQGSGT
notes: In pGST-Parallel1 (BamHI/XhoI); not shown: GST, N-terminal, cleaved

How the values were obtained:
[1] = molecular target: the molecule itself; assay: SEC; purified His6-tagged PAS1(23–168) compared with the markers BSA (66 kDa) and carbonic anhydrase (29 kDa)
[2] = molecular target: the molecule itself; assay: not stated; the protein used for ITC is called 'the E146A mutant dimer'; how the dimer was shown for this mutant is not told
[3] = molecular target: the molecule itself; assay: negative-stain electron microscopy with Ni-NTA gold labelling; Ni-NTA gold (5 nm) on C-terminal His6-tagged TodS(43–978), negatively stained with 1% uranyl acetate
[4] = molecular target: the molecule itself; assay: SEC; purified PAS2(611–729) compared with the marker carbonic anhydrase (29 kDa)
[5] = molecular target: the molecule itself; assay: SEC-MALS; TodS(23–978) 1 mg/ml on Superdex G200, PBS pH 7.3 with 10% glycerol and 5 mM DTT, 0.25 ml/min, 25 °C

| Protein | stoichiometry N [1] | other results |
| --- | --- | --- |
| B1 | 2 | – |
| B2 | 2 | – |
| B3 | 2 | – |
| B4 | 2 | – |
| B5 | – | stoichiometry N [2]: 2 |
| B6 | 2 | – |
| B7 | – | stoichiometry N [3]: 2 |
| B8 | – | stoichiometry N [4]: 2 |
| B9 | – | stoichiometry N [5]: 2 |
